The chains are these.
B1: Sentrin-specific protease 7 (Homo sapiens), Q9BQF6 (parent)
chain: MDKRKLGRRPSSSEIITEGKRKKSSSDLSEIRKMLNAKPEDVHVQSPLSKFRSSERWTLPLQWERSLRNKVISLDHKNKKHIRGCPVTSKSSPERQLKVMLTNVLWTDLGRKFRKTLPRNDANLCDANKVQSDSLPSTSVDSLETCQKLEPLRQSLNLSERIPRVILTNVLGTELGRKYIRTPPVTEGSLSDTDNLQSEQLSSSSDGSLESYQNLNPHKSCYLSERGSQRSKTVDDNSAKQTAHNKEKRRKDDGISLLISDTQPEDLNSGSRGCDHLEQESRNKDVKYSDSKVELTLISRKTKRRLRNNLPDSQYCTSLDKSTEQTKKQEDDSTISTEFEKPSENYHQDPKLPEEITTKPTKSDFTKLSSLNSQELTLSNATKSASAGSTTETVENSNSIDIVGISSLVEKDENELNTIEKPILRGHNEGNQSLISAEPIVVSSDEEGPVEHKSSEILKLQSKQDRETTNENESTSESALLELPLITCESVQMSSELCPYNPVMENISSIMPSNEMDLQLDFIFTSVYIGKIKGASKGCVTITKKYIKIPFQVSLNEISLLVDTTHLKRFGLWKSKDDNHSKRSHAILFFWVSSDYLQEIQTQLEHSVLSQQSKSSEFIFLELHNPVSQREELKLKDIMTEISIISGELELSYPLSWVQAFPLFQNLSSKESSFIHYYCVSTCSFPAGVAVAEEMKLKSVSQPSNTDAAKPTYTFLQKQSSGCYSLSITSNPDEEWREVRHTGLVQKLIVYPPPPTKGGLGVTNEDLECLEEGEFLNDVIIDFYLKYLILEKASDELVERSHIFSSFFYKCLTRKENNLTEDNPNLSMAQRRHKRVRTWTRHINIFNKDYIFVPVNESSHWYLAVICFPWLEEAVYEDFPQTVSQQSQAQQSQNDNKTIDNDLRTTSTLSLSAEDSQSTESNMSVPKKMCKRPCILILDSLKAASVQNTVQNLREYLEVEWEVKLKTHRQFSKTNMVDLCPKVPKQDNSSDCGVYLLQYVESFFKDPIVNFELPIHLEKWFPRHVIKTKREDIRELILKLHLQQQKGSSS

Variants of B1 are the subject of one assay. The conditions noted are these: with cbx5_human CBX5, P45973.
cbx5_human CBX5, P45973, sequence (P45973 whole entry): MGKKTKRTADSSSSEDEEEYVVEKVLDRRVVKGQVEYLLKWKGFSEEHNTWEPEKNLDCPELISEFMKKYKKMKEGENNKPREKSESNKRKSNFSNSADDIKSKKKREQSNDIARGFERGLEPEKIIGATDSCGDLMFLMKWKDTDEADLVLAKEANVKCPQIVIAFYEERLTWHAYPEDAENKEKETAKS
As for L149A;L152A;L156A;L158A;P163A;V165A, the “effect of a mutation on the interaction” value is reported as “disrupting interaction”.

The variants in the next assay derive from B1. The conditions noted are these: with tif1b_human TRIM28, Q13263.
tif1b_human TRIM28, Q13263, sequence (Q13263 whole entry): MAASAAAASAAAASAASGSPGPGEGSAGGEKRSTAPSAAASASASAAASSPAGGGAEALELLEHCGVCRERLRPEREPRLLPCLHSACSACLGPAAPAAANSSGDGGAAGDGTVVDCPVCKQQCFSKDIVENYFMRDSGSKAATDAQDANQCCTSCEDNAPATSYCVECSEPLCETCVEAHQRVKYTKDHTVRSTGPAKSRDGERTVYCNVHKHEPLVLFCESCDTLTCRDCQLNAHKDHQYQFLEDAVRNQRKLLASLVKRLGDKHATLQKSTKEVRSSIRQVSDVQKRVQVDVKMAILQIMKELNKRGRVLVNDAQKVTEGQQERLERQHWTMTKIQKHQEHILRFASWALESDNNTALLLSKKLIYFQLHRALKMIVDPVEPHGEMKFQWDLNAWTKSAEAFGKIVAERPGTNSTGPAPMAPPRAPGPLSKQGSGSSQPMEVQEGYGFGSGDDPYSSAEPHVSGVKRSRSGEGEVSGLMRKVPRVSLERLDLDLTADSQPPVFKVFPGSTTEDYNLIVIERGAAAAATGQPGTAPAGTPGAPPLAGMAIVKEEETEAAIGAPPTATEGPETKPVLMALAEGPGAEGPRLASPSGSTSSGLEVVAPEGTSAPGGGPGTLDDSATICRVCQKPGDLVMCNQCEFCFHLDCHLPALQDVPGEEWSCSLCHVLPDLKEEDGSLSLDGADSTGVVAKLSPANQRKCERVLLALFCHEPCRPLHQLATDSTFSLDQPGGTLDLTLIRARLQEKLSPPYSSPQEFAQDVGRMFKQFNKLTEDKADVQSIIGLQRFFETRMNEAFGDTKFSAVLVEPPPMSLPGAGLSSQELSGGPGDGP
For L149A;L152A;L156A;L158A;P163A;V165A, the “effect of a mutation on the interaction” value is given as “disrupting interaction”.

A further assay covers variants of B1. Conditions: with tif1b_human TRIM28, Q13263. This is another data set of the same source.
Turning to C992A, the “effect of a mutation on the interaction” value is “increasing interaction”.

These data come from IntAct's records for PubMed 24018422.
